Measured values published in US20260028391A1.
Residue numbers refer to the chain shown, from its start.

B1: MPK142-v1 (antibody, V domains shown)
VH: EVQLVESGGGLVEPGGSLRLSCAASGFTISGYGMSWVRQAPGKGLEWVSSISASSSYIYYGDAMKGRITISRDNGWNSMYLQMNSLRTEDTAVYYCATAPIEPPYFDLWGRGTLVTVSS
VL: QSVLTQPPSVSGAPGQRVTISCTGSSSNIGAGYDVHWYQQFPGKAPKVLIYGNNNRPSGVPDRFAASNSGASASLAITGLQAEDEAAYFCQSYDRRLSGPVFGGGTKLTVL
B2: MPK145 (antibody, V domains shown)
VH: B1 VH
VL: B1 VL with L4V
B3: MPK142-v2 (antibody, V domains shown)
VH: B1 VH
VL: DIQLTQTPTSLSASVGDRVTFTCRASQNIGFYLNWYQQKPGKAPRLLIYGASNLQSGVPSRFSGSGAGTDFSLTISSLQPEDFATYYCQQSFNTPRTFGQGTKVEIN
B4: MPK174-v2 (antibody, V domains shown)
VH: EVQLVESGGGLVKPGGSLRLSCAASRFKFGDYYMSWIRQAPGKGLEWVSNISPSSSYTNYADSVKGRFTISRDNAKNLLYLQMNSLRAEDTAVYYCARESCSGGSCSLHGMDVWGQGTTVTVAS
VL: QSVLTQPPSVSGAPGQRVTISCTGSSSNIGAGYDVHWYQQLPGTAPKLLIYDNSNRPSGVPDRFSGSKSGTSASLAITGLRAEDDADYYCQSYDRSLGGSIFGGGTKLTVL
B5: MPK144 (antibody, V domains shown)
VH: EVQLVESGGGLVRPGGSLRLSCAASGFTFTGYYMMWIRQAPGKGLEWISDISSSSSYTNYADSVKGRFAISRDNAQNTLYLQMNSLRAEDTAVYYCATEQVPSPGPFDLWGQGTLVTVSS
VL: B4 VL with I29F, L41F, A45S, D52R, S54T, R81Q, D85E, G98T, S100W, I101V
B6: MPK196 (antibody, V domains shown)
VH: B4 VH with E1Q, K76N
VL: B4 VL
B7: MPK136 (antibody, V domains shown)
VH: EVQLVESGGGLVKPGGSLRLSCEASGFSLSGYYMIWIRQAPGKGLEWISSISGSGNYINYADSVKGRFTVSRDNGHNTLYLQMNSLRVEDTAVYYCATEQTPSPGPFDHWGQGTLVTVSS
VL: QVQLVQPPSVSGAPGQRVSISCTGTSSNIGTGYDVHWYQQFPGTSPKLLIYRNTNRPSGVPDRFSGSKSGSSASLAIAGLQAEDEADYYCQSYDRSVSGWVFGGGTKLTVL
B8: MPK150-v2 (antibody, V domains shown)
VH: EVQLVESGGGLVKPGGSLRLSCEASGISLSGYYMIWIRQAPGKGLEWISSISGSSTYIDYADSVRGRFTISRHNGQNTIYLQMNSLRVEDTAVYFCATEQTPSPGPFELWGRGILVTVSS
VL: B7 VL with V2S, Q3V, V5T, S19T, S21F, Y51F, T54S, S96G, S98N
B9: MPK149 (antibody, V domains shown)
VH: QVQLVESGGGLVKPGGSLRLSCEASGFTISGYFMIWIRQAPGKGLEWISSISGSSTYTDYAESVKGRFTISRDNGRSTLYLQMNSLRVEDTAVYYCATEQTPSPGPFDLWGQGTLVTVSS
VL: B7 VL with V2S, Q3V, L4V, V5T, S19T, T31A, K47R, Y51N, K68Q
B10: MPK204 (antibody, V domains shown)
VH: B7 VH with E1Q, F27L, G53S, G55S, N59D, V70I, D73H, H76Q, H109L
VL: B7 VL with V2S, Q3V, V5T, S19T
B11: MPK127 (antibody, V domains shown)
VH: QVQLVISGGGLVKPGGSLRLSCAASGFRIDSFSLNWVRQAPGKGLEWLASVSASSSYIDYRDSVAGRFTISRDNAQNSLYLQMDTLRAEDTAVYYCARTNGYETGSFDVWGQGTLVTVAS
VL: QSVLTQPPSVSGAPGQRVTISCTGSSSNIGAGYDVHWYQQLPGKAPKLLINANNNRPSGVPDRFSGSNSGTSASLAITGLQAEDEADYYCQSYDKTLSGYVFGLGTTVTVL
B12: MPK141 (antibody, V domains shown)
VH: EVQLVESGGGLVKPGGSLRLSCAASGFTISGYYMTWIRQAPGKGLEWISYISGSSSYTNYADSVKGRFTISRDNGRNSVYLQMNSLRADDTGVYYCAREETPSPGPFDSWGQGILVTVSS
VL: QSVLTQPPSVSGAPGQRIIISCIGSSSNIGTGYDVHWYQQLPGRAPKLLISRNTNRPSGIPDRFSGSKSGTSASLAITGLQADDEADYYCQSYDRGLDGWVFGGGTKLTVL
B13: MPK126 (antibody, V domains shown)
VH: EVQLVESGGGLVKPGGSMRLSCAASGVTLSGYYMIWIRQAPGKGLEWISDISASSTYTDYADSVKGRFTVSRDNSQNTVYLQMNSLRAEDTAVYYCATEQTPSPGPFDLWGQGTLVTVSS
VL: QSVLTQPPSVSGAPGQRVTISCTGSSSNVGAGYDVHWYQQFPGTSPKLLIYRNTNRPSGVPDRFSGFKSGTSASLAITGLEAEDEADYYCQSYDRSLSGWVFGAGTKLTVL
B14: MPK151 (antibody, V domains shown)
VH: B13 VH with M18L, V27L, L29I, D62E, T69S, V70I, S75G
VL: B13 VL with R17K, V18I, S25G, V29F, N55F, F67S, E81Q, A104G
B15: MPK146 (antibody, V domains shown)
VH: QVQLVESGGGLVKPGGSLRLSCAASGFTFSGYYMIWIRQAPGKGLEWIASISGSSNYIDYADSVRGRFTISRDNARNILDLQMNSLRAGDTALYYCATEQVPSPGPFDLWGQGTLVTVSS
VL: B13 VL with S26N, V29L, S65A, F67S, E81Q, A104G
B16: MPK162 (antibody, V domains shown)
VH: EVQLVESGGGLVKPGDSLRLSCAASGFSLSSYYMFWIRQAPGKGLEWVSDISGGSTFTNYADSVKGRFTISRDNAKKVLYLQMNSLRVDDSAVYYCVRGSSISPNWFESWGQGALVTVSS
VL: QSVLTQPPSVSGAPGQRVTISCTGTSSNIGAGYDVHWYQQVPGTAPKLLIYGNSNRPSGVPDRFSGSKSGTAASLAINGLQTEDEAEYYCQSYDRSLTGSYVFGSGTRVFVR
B17: MPK130 (antibody, V domains shown)
VH: EVQLVESGGGLVKPGGSLTLSCEASGFSISGYYMIWVRQAPGKGLEWVSSISASDTYIDYAVSVQGRFTISRHNTKNSLYLQMSSLRVEDTGVYYCTREKVPSPGPFDCWGQGTLVTVSS
VL: QSVLTQPPSVSGAPGQRITISCTGTSSNIGAGYDVHWYQHLPGAAPRLLIYVNTNRPSGVPDRFSGARSGTSASLAITGLQAEDEADYYCQSYDRSLGGWAFGEGTKVTVL
B18: MPK158 (antibody, V domains shown)
VH: EVQLVESGGGLVKPGGSLRLSCAASGFSISGFYMIWIRQAPGKGLEWISDISASSSYIDYADSVKGRFTISRDNGQNTVHLLMNNLRADDTGVYYCAREQTPSPGPFDLWGQGTLVTVST
VL: QPVLTQPPSVSGAPGQRVTISCTGRSSNIGAGYDVHWYQHLPGTSPKLLIYRNSNRPSGVPDRFSGSTSGTSASLAITGLQADDEADYYCQAYDRILGGWAFGGGTKLTVL
B19: MPK133 (antibody, V domains shown)
VH: QVQLVQSGGGLVKPGGSLRLSCAASEFSFSGYFMIWIRQAPGKGLEWISYISGSSTYTNYADSVKGRFTISRDNAQNTLYLEMNSLRAEDTGVYYCATEQVPSPGPFDLWGQGTLVTVSS
VL: QSVLTQPPSVSGAPGQRVTISCTGSSSNIGAGYDVHWYQQFPGRSPTLLIYRNTNRPSGVPDRFSGSQSGSSASLAITGLQAEDEADYYCQSYDRTLSGWAFGGGTKVTVL

Target: MPV fusion glycoprotein without the D280N mutation (MPV-F D280) (metapneumovirus)
Experiment: SPR; F protein loaded on streptavidin sensors, mAb in solution

Binder	Kd
B1	100 nM
B2	0.001 nM
B3	0.0027 nM
B4	11 nM
B5	0.81 nM
B6	3.8 nM
B7	0.001 nM
B8	0.001 nM
B9	0.001 nM
B10	0.001 nM
B11	0.001 nM
B12	0.001 nM
B13	0.001 nM
B14	0.001 nM
B15	0.001 nM
B16	100 nM
B17	0.018 nM
B18	0.001 nM
B19	0.082 nM

Target: MPV fusion glycoprotein with the D280N mutation (MPV-F N280) (metapneumovirus)
Experiment: as above

Binder	Kd
B1	100 nM
B2	0.85 nM
B3	0.2 nM
B4	100 nM
B5	100 nM
B6	100 nM
B7	4.6 nM
B8	0.58 nM
B9	0.4 nM
B10	2.6 nM
B11	0.001 nM
B12	0.84 nM
B13	0.21 nM
B14	0.27 nM
B15	7.2 nM
B16	100 nM
B17	1.9 nM
B18	0.29 nM
B19	3.7 nM

Target: fusion glycoprotein of the RSV used in the neutralization assay of Example 1 (respiratory syncytial virus (strain not stated))
Experiment: cell-based or functional assay

Binder	RSV Neutralization - IC50
B1	0.0211 µg/mL
B2	0.0239 µg/mL
B3	0.162 µg/mL
B4	0.0136 µg/mL
B5	0.0082 µg/mL
B7	0.0344 µg/mL
B8	0.0147 µg/mL
B9	0.0335 µg/mL
B11	0.0787 µg/mL
B12	0.014 µg/mL
B13	0.0264 µg/mL
B14	0.0375 µg/mL
B16	0.0252 µg/mL

Target: fusion glycoprotein of the MPV D280 used in the neutralization assay of Example 3 (metapneumovirus (strain not stated))
Experiment: cell-based or functional assay

Binder	MPV D280 Neutralization - IC50
B1	0.003 µg/mL
B2	0.0078 µg/mL
B3	0.135 µg/mL
B4	0.0177 µg/mL
B5	0.0049 µg/mL
B6	0.027 µg/mL
B7	0.0158 µg/mL
B8	0.0158 µg/mL
B9	0.0192 µg/mL
B11	0.0243 µg/mL
B12	0.0098 µg/mL
B13	0.0236 µg/mL
B14	0.0178 µg/mL
B16	0.102 µg/mL
